Laboratory results reported in patent US20260265334A1, “STAPLED PEPTIDES” (THE FLOREY INSTITUTE OF NEUROSCIENCE AND MENTAL HEALTH, priority 2023, published 2026).
Bridge positions count the residues as written; N and C are the ends. Square brackets hold non-standard residues; d marks the D form. Ends that are not written are not given here. I, II: the chains in the order shown. αMeF = C[C@](N)(Cc1ccccc1)C(=O)O

How the values were obtained:
[1] = target: T1, RXFP3 (relaxin family peptide receptor 3) on CHO-K1-RXFP3 cells (UniProt Q9NSD7 1-469, limits assumed); experiment: competition with Eu-H3B1-22R on CHO-K1-RXFP3 cells
T1 construct: whole, on cells; also called GPCR135
T1 sequence (looked up): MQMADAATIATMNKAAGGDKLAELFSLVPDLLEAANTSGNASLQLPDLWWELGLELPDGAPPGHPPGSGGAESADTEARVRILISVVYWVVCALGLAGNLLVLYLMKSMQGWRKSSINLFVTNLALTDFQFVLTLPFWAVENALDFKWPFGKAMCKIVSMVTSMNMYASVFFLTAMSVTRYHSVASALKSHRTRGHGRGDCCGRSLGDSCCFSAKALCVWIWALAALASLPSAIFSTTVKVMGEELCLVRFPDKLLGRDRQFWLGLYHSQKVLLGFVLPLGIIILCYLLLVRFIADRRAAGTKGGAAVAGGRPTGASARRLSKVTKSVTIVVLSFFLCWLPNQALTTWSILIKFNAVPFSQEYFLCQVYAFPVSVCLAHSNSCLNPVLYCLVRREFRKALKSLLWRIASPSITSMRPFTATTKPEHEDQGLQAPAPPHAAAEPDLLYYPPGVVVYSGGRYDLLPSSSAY

[2] = target: T2, RXFP4 (relaxin family peptide receptor 4) on CHO-K1-RXFP4 cells (UniProt Q8TDU9 1-374, limits assumed); experiment: competition with Eu-R3/I5 on CHO-K1-RXFP4 cells
T2 construct: whole, on cells; also called INSL5 receptor

[3] = target: T1, RXFP3 (relaxin family peptide receptor …); experiment: cell-based or functional assay
[4] = target: T3, RXFP3 (relaxin family peptide receptor 3) on CHO-K1-RXFP3 cells, Q9NSD7; experiment: cell-based or functional assay
T3 chain: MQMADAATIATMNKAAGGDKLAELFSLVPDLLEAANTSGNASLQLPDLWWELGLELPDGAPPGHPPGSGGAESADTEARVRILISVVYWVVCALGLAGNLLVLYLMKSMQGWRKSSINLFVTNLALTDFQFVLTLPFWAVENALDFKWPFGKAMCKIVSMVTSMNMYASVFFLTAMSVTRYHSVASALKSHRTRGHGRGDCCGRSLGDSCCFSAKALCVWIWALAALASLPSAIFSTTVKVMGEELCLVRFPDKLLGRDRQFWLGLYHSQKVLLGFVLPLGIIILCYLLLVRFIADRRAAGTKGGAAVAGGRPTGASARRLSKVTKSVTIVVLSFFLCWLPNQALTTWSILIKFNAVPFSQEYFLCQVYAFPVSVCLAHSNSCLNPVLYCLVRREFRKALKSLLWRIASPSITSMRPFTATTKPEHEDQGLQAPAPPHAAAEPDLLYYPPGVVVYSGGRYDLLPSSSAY

[5] = target: T2, RXFP4 (relaxin family peptide receptor …); experiment: competition with 5 nM Eu-DTPA-R3/I5 on CHO-K1-RXFP4 cells
[6] = target: T2, RXFP4 (relaxin family peptide receptor …); experiment: cell-based or functional assay
[7] = target: T1, RXFP3 (relaxin family peptide receptor …); experiment: competition with 5 nM Eu-H3B1-22R on CHO-K1-RXFP3 cells
[8] = target: T1, RXFP3 (relaxin family peptide receptor …); experiment: cell-based or functional assay; remark: listed apart in the source
[9] = target: RXFP4-NLuc (nanoluciferase-tagged RXFP4) (UniProt Q8TDU9 1-374); experiment: cell-based or functional assay
[10] = target: T4, RXFP3-NLuc (human RXFP3 with Nanoluciferase on the C-terminus) (human, UniProt Q9NSD7 1-469); experiment: cell-based or functional assay
T4 sequence (looked up): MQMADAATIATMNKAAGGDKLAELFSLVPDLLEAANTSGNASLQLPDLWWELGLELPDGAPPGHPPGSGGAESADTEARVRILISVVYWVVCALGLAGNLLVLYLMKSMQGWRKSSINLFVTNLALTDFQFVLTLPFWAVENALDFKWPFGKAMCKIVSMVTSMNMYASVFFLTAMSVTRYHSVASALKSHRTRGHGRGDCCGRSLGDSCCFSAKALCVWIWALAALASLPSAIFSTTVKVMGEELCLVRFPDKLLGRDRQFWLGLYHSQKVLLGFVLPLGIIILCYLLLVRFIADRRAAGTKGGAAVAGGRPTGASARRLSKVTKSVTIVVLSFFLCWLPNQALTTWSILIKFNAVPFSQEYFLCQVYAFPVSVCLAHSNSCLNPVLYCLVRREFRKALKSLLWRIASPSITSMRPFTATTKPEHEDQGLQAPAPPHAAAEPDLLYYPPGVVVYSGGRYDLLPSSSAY

T2 sequence (Q8TDU9 whole entry): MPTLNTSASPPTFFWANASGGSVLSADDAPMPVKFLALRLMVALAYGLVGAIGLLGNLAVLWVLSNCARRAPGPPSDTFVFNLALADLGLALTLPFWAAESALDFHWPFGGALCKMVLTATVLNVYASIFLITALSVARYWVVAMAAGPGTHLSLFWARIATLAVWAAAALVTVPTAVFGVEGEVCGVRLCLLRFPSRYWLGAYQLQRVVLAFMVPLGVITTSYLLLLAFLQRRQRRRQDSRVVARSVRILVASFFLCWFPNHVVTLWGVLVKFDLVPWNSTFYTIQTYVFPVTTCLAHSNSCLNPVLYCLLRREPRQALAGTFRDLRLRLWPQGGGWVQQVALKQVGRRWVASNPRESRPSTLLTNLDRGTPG
Sequence of RXFP4-NLuc (nanoluciferase-tagged RXFP4) (Q8TDU9 whole entry): as above

B1: H3B1-22R (Formula XI, known single chain antagonist of RXFP3) (peptide)
peptide: RAAPYGVRLSGREFIRAVIFTSR
notes: 23 residues
pKi [1]: 7.64 | binding result [2]: no binding | RXFP3 Antagonist potency pIC50 [3]: 6.25

B2: H3B10-27(13/17F) (peptide)
peptide: SGRFFIRFVIFTSGGSRW
modifications: not checked
cAMP pEC50 [4]: < 5

B3: Human insulin-like peptide 7 (INSL7), also known as human relaxin-3 (H3 relaxin) (ligand)
chain 1: DVLAGLSSSCCKWGCSKSEISSLC
chain 2: RAAPYGVRLCGREFIRAVIFTCGGSRW
modifications: disulfide I:10-I:15; not fully specified; cysteine pairing not given here
pKi [5]: 8.42 | cAMP pEC50 [6]: 8.94

B4: H3B10-27(13/17αF) (peptide)
peptide: SGR[αMeF]FIR[αMeF]VIFTSGGSRW
notes: 18-residue single-chain RXFP3 agonist, non-covalently stapled; also called πH3B; target peptide
pKi [5]: 6.81 | pKi [7]: 6.83 | cAMP pEC50 [8]: 8.16 | RXFP4 pEC50 (β-arrestin2 recruitment, NanoBRET AUC) [9]: 5.57 | RXFP3 pEC50 (β-arrestin2 recruitment, NanoBRET AUC) [10]: 7.19 | cAMP pEC50 [6]: 7.26

B5: H3B10-27 (native B10-27) (peptide)
peptide: SGREFIRAVIFTSGGSRW
cAMP pEC50 [8]: < 5
